Measurements taken from US20210030838A1, “CHEMOTAXIS-POTENTIATING PEPTIDES AND USES THEREOF” (University of Copenhagen, priority 2017, published 2021).

What was measured:
CCR7 = molecular target: T1, CCR7 (Homo sapiens, UniProt P32248); test: CCR7 signalling via Gαi (cAMP decrease, Camyel BRET) in transfected CHO cells; assay type: cell-based; conditions: BRET ratio; for G-protein signalling via CCR7 induced by the chemokine itself (comparison): FIG. 4A-D; for effect of peptide on CCL19-induced CCR7 signalling / effect of peptide on CCL19 chimera-induced CCR7 signalling / effect of peptide on full-length CCL21-induced CCR7 signalling / effect of peptide on tailless CCL21-induced CCR7 signalling: peptide 10 μM
T1 construct: expressed in transfected cells; host or cells: CHO cells, transient lipofectamine co-transfection with the Camyel cAMP BRET sensor
T1 sequence (P32248 25-378): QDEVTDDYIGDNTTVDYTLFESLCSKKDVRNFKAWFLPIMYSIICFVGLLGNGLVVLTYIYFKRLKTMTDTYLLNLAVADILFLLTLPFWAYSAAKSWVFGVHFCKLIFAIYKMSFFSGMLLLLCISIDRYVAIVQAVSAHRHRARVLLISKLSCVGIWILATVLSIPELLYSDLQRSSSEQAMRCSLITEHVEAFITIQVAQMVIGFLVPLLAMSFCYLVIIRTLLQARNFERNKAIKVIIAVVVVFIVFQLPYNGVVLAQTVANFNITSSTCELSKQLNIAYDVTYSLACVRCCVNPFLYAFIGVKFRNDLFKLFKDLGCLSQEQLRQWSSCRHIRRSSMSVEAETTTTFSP
Method: CCR7 signalling induced by CCL19, CCL21, CCL19 chimera (CCL19 with CCL21 tail) and tailless CCL21 was investigated. Signalling was detected as a decrease in cAMP which is reflected by an increase in BRET (Bioluminescence resonance energy transfer) ratio.
CHO cells were grown in RPMI medium with 10% FBS and 1% Penicillin/Streptomycin. Cells where seeded in a concentration yielding 1,000,000 cells/well on transfection day (using 6-well-plates).
Cells were transfected with CCR7 and Camyel-encoding plasmids (in 1:5 ratio) using lipofectamine with a total of […] of DNA and […] lipofectamine per well. After 24 hours, the cells where washed in PBS and resuspended in PBS with glucose (final concentration 5 mM).
After harvesting, cells where pooled in two groups. One group was used as a control, whereas the other was supplemented with SEQ ID NO: 1 (CCL21 tail peptide (D1-4)) in a final concentration of 10 μM.
The cells where plated in a 96-well black-white iso plate according to setup. Coelenterazine (final concentration of 5 μM) was added and cells were incubated for 10 min. The 4 ligands (CCL19, CCL21, CCL19 chimera, and tailless CCL21) were added to respective wells. An equal amount chemokine buffer was added to wells without ligands. Forskolin was added to the wells 5 min after addition of ligands.
The BRET ratio was measured as the ratio eYFP/RLuc (BRET 525 emission/BRET 485 emission). In the absence of ligand, bioluminescence resonance energy transfer (BRET) between RLuc and eYFP, both harboured by the Camyel sensor, is high, giving rise to emission from both RLuc and eYFP and a concomitant high BRET ratio. When cAMP binds to the camyel sensor, bioluminescence resonance energy transfer from RLuc to eYFP is decreased, lowering emission from eYFP and thus lowering the BRET ratio. This means that stimulation of receptors that signal via an increase in cAMP leads to a decrease in BRET ratio. The opposite is the case upon stimulation of chemokine receptors that signal via a decrease in cAMP, giving rise to an increase in eYFP and thus BRET ratio.

neutrophil = conditions: through inhibition of GAG-binding of CXCL8; cited from earlier work
[1] = tested on: monocyte derived human DCs (moDC); test: Ibidi 3D μ-slide chemotaxis assay of monocyte derived human DCs (moDC); assay type: cell-based; conditions: for potentiating effect on CCL21 induced chemotaxis of moDC (in words): FIG. 3, 6, 7, 8; for potentiation of moDC chemotaxis induced by CCL19: CCL19 1 and 10 nM, FIG. 1 column 5-8
Method: Ibidi3D μ-slide chemotaxis assay. Mature monocyte derived human DCs were thawed by adding pre-warmed X-vivo, 2% FCS and Glutamine, dissolving in a total of 10 ml of medium. After centrifugation (220×g, 5 min), the DCs were resuspended in fresh medium and left to acclimatize for 20 min.
The collagen mixture with cells was prepared according to the manufacturer's protocol. Briefly, 10 μl 7.5% NaHCO3 was mixed with 20 μl 10×MEM and 150 μl Pure Col was added. After mixing, 90 μl of a mixture of DCs (1×10^6 cells/ml) and CCL21 Tail peptide (final concentration 10 μM) was added. The cell/collagen solution was transferred to the ibidi μ-slide channel holding 6 μl. The collagen with cells was allowed to crosslink in the incubator for 45 minutes in a humidified petridish (holding napkins wetted in sterile water). While filling sink and source reservoirs, the channel and second reservoir were kept plugged. Medium with chemokine buffer (X-vivo 15, 2% HS, glutamine) and Tail-peptide was added to the sink (60 μl), and medium with chemokine plus Tail-peptide was added to the source (60 μl). The setup was transferred to Time-lapse. Cells were tracked for 10 hours and films were analyzed using Autozell tracking program. A population based chemotactic index (CI) was extracted using MatLab.

[2] = tested on: CT26-FL3-luc cancer cells; test: In vivo cancer growth of CT26-FL3-luc cells in Balb/c mice (bioluminescence, IVIS); conditions: FIG. 5; for tumor growth (bioluminescent signal, total flux): Balb/c mice
Method: SEQ ID NO: 1 was tested for its effect on in vivo cancer growth in mice. Female Balb/c mice were injected intraperitoneally with 1.5×10^5 CT26-FL3-luc cancer cells on day 0. The CT26-FL3-luc cell line is derived from a highly metastatic murine colorectal cancer and has been engineered to express luciferase. On days 1, 2, and 3, the mice were injected intraperitoneally with either 0.25 μg murine CCL21, 20 μg human CCL21-Tail peptide (SEQ ID NO: 1), or vehicle (PBS). The CCL21 concentration was determined based on previously published in vivo experiments using CCL21. Administration of SEQ ID NO: 1 functions by a different mechanism than administration of CCL21 as SEQ ID NO: 1 affects the distribution of endogenous CCL21 in the surrounding tissue. Cancer growth was followed over time in live animals by injecting luciferin intraperitoneally and measuring the bioluminescent signal arising from the luciferase-expressing cancer cells using an In Vivo Imaging System (IVIS®) scanner. The bioluminescent signal (total flux) was used to quantify the cancer growth. The number of mice per group was 5-7, and data is shown as mean±SEM.

[3] = tested on: monocyte derived human DCs (moDC); test: Ibidi 3D μ-slide chemotaxis assay of monocyte derived human DCs (moDC); assay type: cell-based; conditions: 10 nM CCL21; peptide dose dependent; FIG. 1 column 1-4
tumour cells = conditions: CCL21 administered to tumor sites; cited from earlier work

## CCL19: chemokine, endogenous ligand of CCR7
CCR7
  G-protein signalling via CCR7 induced by the chemokine itself (comparison): more potent than CCL21

## CXCL9(74-103): CXCL9 C-terminal peptide capable of binding GAGs (Vanheule et al. 2017) (KKKQKNGKKHQKKKVLKVRKSQRSRQKKTT; UniProt Q07325 96-125, looked up, fragment)
neutrophil
  CXCL8-induced neutrophil migration: inhibit CXCL8-induced neutrophil migration

## KDRGASKTG KKGKGSKGCK RTERSQTPKG P (KDRGASKTGKKGKGSKGCKRTERSQTPKGP; listed as Homo sapiens) [SEQ ID NO: 6, CCL21 82-111]
[1]
  potentiating effect on CCL21 induced chemotaxis of moDC (in words): reduced capability to potentiate chemotaxis

## PSPQKPAQGCRKDRGASKTGK (PSPQKPAQGCRKDRGASKTGK; listed as Homo sapiens) [SEQ ID NO: 36, C terminally truncated fragment of CCL21 71-111]
[1]
  potentiating effect on CCL21 induced chemotaxis of moDC (in words): did not potentiate chemotaxis

## PSPQKPAQGCRKDRGASKTGKKGKGSKGCKRTERSQTPKGP (PSPQKPAQGCRKDRGASKTGKKGKGSKGCKRTERSQTPKGP; listed as Homo sapiens) [SEQ ID NO: 1, full length C-terminal tail of CCL21, CCL21 71-111 (D1-D4)]
CCR7; FIG. 4
  effect of peptide on CCL19-induced CCR7 signalling: no effect
  effect of peptide on CCL19 chimera-induced CCR7 signalling: potentiated
  effect of peptide on full-length CCL21-induced CCR7 signalling: potentiated
  effect of peptide on tailless CCL21-induced CCR7 signalling: no effect
CCR7; FIG. 4, listed as CCL21 71-111
  effect of peptide on CCL19-induced CCR7 signalling: essentially no difference in CCR7 signalling
  effect of peptide on CCL19 chimera-induced CCR7 signalling: increased CCR7 signalling
  effect of peptide on full-length CCL21-induced CCR7 signalling: increased CCR7 signalling
  effect of peptide on tailless CCL21-induced CCR7 signalling: essentially no difference in CCR7 signalling
[1]; peptide 10 uM
  potentiation of moDC chemotaxis induced by CCL19: less than two fold
[1]; peptide 10 uM, listed as CCL21 71-111
  potentiation of moDC chemotaxis induced by CCL19: only two fold
[1]; CXCL12gamma 20 and 100 nM, peptide 10 uM, FIG. 1 column 9-12
  potentiation of moDC chemotaxis induced by CXCL12gamma: no strong chemotaxis signal
[1]
  potentiating effect on CCL21 induced chemotaxis of moDC (in words): retained full potency
[2]; 20 μg peptide intraperitoneally on days 1, 2, 3
  tumor growth (bioluminescent signal, total flux): decreased tumor growth
[2]; 20 μg peptide vs 0.25 μg murine CCL21, intraperitoneally
  effectiveness on tumor growth compared with CCL21 treatment: more effective than treatment with the chemokine CCL21
[3]
  potentiation of moDC chemotaxis induced by CCL21: up to 26 fold

## RKDRGASKTGKKGKGSKGCKRTERSQTPKGP (RKDRGASKTGKKGKGSKGCKRTERSQTPKGP; listed as Homo sapiens) [SEQ ID NO: 4, CCL21 81-111 (D2-D4)]
[1]
  potentiating effect on CCL21 induced chemotaxis of moDC (in words): retained full potentiating effect

## TG KKGKGSKGCK RTERSQTPKG P (TGKKGKGSKGCKRTERSQTPKGP; listed as Homo sapiens) [SEQ ID NO: 13, CCL21 89-111]
[1]
  potentiating effect on CCL21 induced chemotaxis of moDC (in words): retain full potentiating effect

B1: CCL19 chimera: CCL19 with CCL21 Tail peptide attached at the C-terminus (protein)
chain: GTNDAEDCCLSVTQKPIPGYIVRNFHYLLIKDGCRVPAVVFTTLRGRQLCAPPDQPWVERIIQRLQRTSAKMKRRSSPSPQKPAQGCRKDRGASKTGKKGKGSKGCKRTERSQTPKGP
CCR7
  G-protein signalling via CCR7 induced by the chemokine itself (comparison): resembles CCL21 signalling

B2: murine CCL21: murine chemokine CCL21 injected intraperitoneally as comparison treatment (protein, UniProt P84444 24-133, looked up)
C-C motif chemokine 21a: SDGGGQDCCLKYSQKKIPYSIVRGYRKQEPSLGCPIPAILFSPRKHSKPELCANPEEGWVQNLMRRLDQPPAPGKQSPGCRKNRGTSKSGKKGKGSKGCKRTEQTQPSRG
[2]; 0.25 μg murine CCL21 intraperitoneally on days 1, 2, 3
  tumor growth (bioluminescent signal, total flux): decreased tumor growth

B3: SDGGAQDCCLKYSQRKIPAKVVRSYRKQEPSLGCSIPAILFLPRKRSQAELCADPKELWVQQLMQHLDKTPSPQKPAQGCRKDRGASKTGKKGKGSKGCKRTERSQTPKGP (protein, listed as Homo sapiens)
chain: SDGGAQDCCLKYSQRKIPAKVVRSYRKQEPSLGCSIPAILFLPRKRSQAELCADPKELWVQQLMQHLDKTPSPQKPAQGCRKDRGASKTGKKGKGSKGCKRTERSQTPKGP
notes: chemokine, endogenous ligand of CCR7; full length CCL21 without the signal peptide
Tumour cells
  growth of tumour cells: reduced growth of the tumour cells
